Square brackets hold non-standard residues; d marks the D form. Ends that are not written are not given here. A^u = urea residue with alanine side chain
T1: mouse GLP-1 receptor endogenously expressed in βTC6 cells (mouse, UniProt O35659 22-463)
T1 sequence (looked up): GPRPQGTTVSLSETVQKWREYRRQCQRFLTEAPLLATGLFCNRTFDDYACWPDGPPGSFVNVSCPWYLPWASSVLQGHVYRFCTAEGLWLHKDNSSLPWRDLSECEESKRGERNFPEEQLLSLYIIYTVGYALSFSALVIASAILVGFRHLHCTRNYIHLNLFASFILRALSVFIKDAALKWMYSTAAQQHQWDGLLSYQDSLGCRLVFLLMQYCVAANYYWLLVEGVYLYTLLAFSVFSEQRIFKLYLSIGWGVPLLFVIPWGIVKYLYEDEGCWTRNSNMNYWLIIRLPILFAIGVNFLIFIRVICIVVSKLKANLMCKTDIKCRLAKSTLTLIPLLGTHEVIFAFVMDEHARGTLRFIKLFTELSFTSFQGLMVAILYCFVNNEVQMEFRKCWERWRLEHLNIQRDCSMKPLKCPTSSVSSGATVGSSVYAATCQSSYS


Tests used:
Experiment in all cases: cell-based or functional assay
[1] = target: human glucagon receptor expressed in transfected CHO cells (human, UniProt P47871 26-477)
[2] = target: T1, mouse GLP-1 receptor endogenously …
[3] = target: T1, mouse GLP-1 receptor endogenously …; remark: listed apart in the source

Row | Binder | EC50, Glucagon Functional Assay (cAMP production, HTRF) [1] | EC50, GLP-1 Functional Assay (cAMP production, HTRF) [2] | % bioactivity of reference (reference compound 1) [3]
1 | HSQGTFTSDYSKYLDSRRAQDFXQWLXNT (A^u at position 23 (urea residue with alanine side chain); Nle (norleucine) at position 27) [Compound 55] | 34 nM | – | –
2 | HSQGTFTSDYSKYLDSXRAQDFVQWLXNT (A^u at position 17 (urea residue with alanine side chain); Nle (norleucine) at position 27) [Compound 53] | 0.67 nM | – | –
3 | H[A^u]EGTFTSDL[A^u]KQLEEEAVRLFIEWLKNGGPSSGAPPSKKKKKK [Compound 73] | – | 0.34 nM | –
4 | HAEGTFTSDVSSYLEGQAAKEFIAWLXKGRG (A^u at position 27 (urea residue with alanine side chain)) [Compound 7] | – | 0.22 nM | –
5 | HAEGTFTSDVSSYLEGQAAKEFIXWLVKGRG (A^u at position 24 (urea residue with alanine side chain)) [Compound 2] | – | 1.5 nM | –
6 | XAEGTFTSDVSSYLEGQAAKEFIAWLVKGRG (H^u at position 1 (urea residue with histidine side chain)) [Compound 12] | – | 280 nM | –
7 | HAEGTFTSDVSSYLEGQXAKEFIAWLVKGRG (A^u at position 18 (urea residue with alanine side chain)) [Compound 45] | – | 0.036 nM | 200%
8 | HAEGTFTSDVSSYLEGQAAKEFIAWLVXGRG (K^u at position 28 (urea residue with lysine side chain)) [Compound 46] | – | – | 157%
9 | HAEGTFTSDVSSYLEGQAAKEFIAXLVKGRG (A^u at position 25 (urea residue with alanine side chain)) [Compound 3] | – | 0.46 nM | –
10 | HAEGTFTSDVSSYLEGQAAKEFIAXLVKGRG (W^u at position 25 (urea residue with tryptophan side chain)) [Compound 4] | – | 0.26 nM | –
11 | HAEGTFTSDVSSYLEGQAAKEFIAWXVKGRG (A^u at position 26 (urea residue with alanine side chain)) [Compound 5] | – | 0.42 nM | –
12 | HXEGTFTSDVSSYLEGQAAKEFIAWLVKGRG (A^c at position 2 (N,N'-linked carbomyl / carbamate residue with alanine side chain)) [Compound 43] | – | – | 9%
13 | HAEGTFTSDVSSYLEGQAAKEFIAWLVKGRX (G^u at position 31 (urea residue with glycine side chain)) [Compound 27] | – | 0.081 nM | –
14 | HAEGTFTSDVSSYLEGQAAKEFIAWLVKXRG (G^u at position 29 (urea residue with glycine side chain)) [Compound 25] | – | 0.074 nM | –
15 | HAEGTFTSDVSSYXEGQAAKEFIAWLVKGRG (Y^u at position 14 (urea residue with tyrosine side chain)) [Compound 44] | – | 0.048 nM | 150%
16 | HSQGTFTSDYSKYLDSRRAQDFVQXLXNT (A^u at position 25 (urea residue with alanine side chain); Nle (norleucine) at position 27) [Compound 57] | 22 nM | – | –
17 | HSQGTFTSDYSKYLDSRRAQDFVQWLXNX (Nle (norleucine) at position 27; A^u at position 29 (urea residue with alanine side chain)) [Compound 36] | 0.026 nM | – | –
18 | HSQGTFTSDYSKYLDSRRAQDFVQWXXNT (A^u at position 26 (urea residue with alanine side chain); Nle (norleucine) at position 27) [Compound 58] | 35 nM | – | –
19 | HSQGTFTSDYSKYLDXRRAQDFVQWLXNT (A^u at position 16 (urea residue with alanine side chain); Nle (norleucine) at position 27) [Compound 52] | 34 nM | – | –
20 | HSQGTFTSDYSKYLDSRRAQDFVQWLXXT (Nle (norleucine) at position 27; A^u at position 28 (urea residue with alanine side chain)) [Compound 35] | 0.44 nM | – | –
21 | HSQGTFTSDYSKYXDSRRAQDFVQWLXNT (A^u at position 14 (urea residue with alanine side chain); Nle (norleucine) at position 27) [Compound 51] | 68 nM | – | –

— patent publication US20190142905A1 (UREKA SARL, published 2019)
